# Substitutions are numbered along the chain they refer to.
# T1: human FcgRIIa type R extracellular domain (human, UniProt P12318 34-217)
# T1 construct: extracellular domain; also called hFcgRIIaR
# T1 sequence (looked up): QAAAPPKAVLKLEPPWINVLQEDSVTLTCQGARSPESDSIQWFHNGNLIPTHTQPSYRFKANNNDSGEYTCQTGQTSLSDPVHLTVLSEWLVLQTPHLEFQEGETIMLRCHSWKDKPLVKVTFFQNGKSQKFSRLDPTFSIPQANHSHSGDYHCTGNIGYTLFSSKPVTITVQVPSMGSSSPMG
# T2: human FcgRIIa type H extracellular domain (human, UniProt P12318 34-217)
# T2 construct: extracellular domain; also called hFcgRIIaH
# T2 sequence (looked up): T1 sequence (looked up) with R134H
# T3: human FcgRIIb extracellular domain (human, UniProt P31994 43-217)
# T3 construct: extracellular domain; also called hFcgRIIb
# T3 sequence (looked up): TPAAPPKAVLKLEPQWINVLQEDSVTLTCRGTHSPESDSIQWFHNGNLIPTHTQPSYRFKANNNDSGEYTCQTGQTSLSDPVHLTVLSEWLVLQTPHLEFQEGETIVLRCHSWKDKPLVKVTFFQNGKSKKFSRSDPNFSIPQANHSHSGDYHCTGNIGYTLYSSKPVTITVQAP
# B1: A375-SCF033/B167-Lamlib (antibody, human IgG1, lambda)
# heavy: EVQLVESGGGLVKPGGSLRLSCAASGFTFSTFTMNWVRQAPGKGLEWVSSISSKSTYIEYADSFKVRFTISRDNAKNSLYLQMNSLRAEDTAVYYCARYGAKNFLNWVFDYWGQGTLVTVSSASTKGPSVFPLAPSSKSTSGGTAALGCLVKDYFPEPVTVSWNSGALTSGVHTFPAVLQSSGLYSLSSVVTVPSSSLGTQTYICNVNHKPSNTKVDKKVEPKSCDKTHTCPPCPAPEYLGDDSVFLFPPKPKDVLMISRTPEVTCVVVDVSHEDPEVKFNWYVDGVEVHNAKTKPREEQYNSTYRVVSVLPVLHRDWLNGKEYKCKVSNKALPKPIEKTISKAKGQRREPQVYTLPPSREEMTKNQVSLTCLVKGFYPSDIAVEWESNGQPENNYKTTPPVLDSDGSFFLYSKLTVDKSRWQQGNVFSCSVMHEALHNHYTQKSLSLSP
# light: QSALTQPPSASGSPGQTVTISCTGTRYDVGYYEYVSWYQQHPGKAPKLMIYETSKRLSGVPDRFSGSKSGNTASLTVSGLQAEDEADYYCSSYRYEHQVSFGGGTKLTVLGQPKAAPSVTLFPPSSEELQANKATLVCLISDFYPGAVTVAWKADSSPVKAGVETTTPSKQSNNKYAASSYLSLTPEQWKSHRSYSCQVTHEGSTVEKTVAPTECS
# B2: A375-SCF042a/B167-Lamlib (antibody, human IgG1, lambda)
# heavy: EVQLVESGGGLVKPGGSLRLSCAASGFTFSTFTMNWVRQAPGKGLEWVSSISSKSTYIEYADSFKVRFTISRDNAKNSLYLQMNSLRAEDTAVYYCARYGAKNFLNWVFDYWGQGTLVTVSSASTKGPSVFPLAPSSKSTSGGTAALGCLVKDYFPEPVTVSWNSGALTSGVHTFPAVLQSSGLYSLSSVVTVPSSSLGTQTYICNVNHKPSNTKVDKRVEPKSCDKTHTCPPCPAPELLNGPSVFLFPPKPKDTLMISRTPEVTCVVVDVSDEDPEVKFNWYVDGVEVHNAKTKPREEQYNSTYRVVSVLTVLHQDWLNGKEYKCKVSNKALPKPIEKTISKAKGQPREPQVYTLPPSREEMTKNQVSLTCLVKGFYPSDIAVEWESNGQPENNYKTTPPVLDSDGSFFLYSKLTVKKSRWQQGNVFSCSVMHEALHNHYTQKSLSLSP
# light: B1 light
# notes: copies: 2 + 2
# B3: A375-SCF041a/B167-Lamlib (antibody, human IgG1, lambda)
# heavy: B2 heavy with P348R, K418D
# light: B1 light
# B4: A375-SCF039/B167-Lamlib (antibody, human IgG1, lambda)
# heavy: B2 heavy with R219K, L240W, Q300L, K331T, P348R, K418D
# light: B1 light
# B5: A375-SCF039a/B167-Lamlib (antibody, human IgG1, lambda)
# heavy: B2 heavy with L240W, Q300L, K331T, P348R, K418D
# light: B1 light
# B6: A375-SCF056a/B167-Lamlib (antibody, human IgG1, lambda)
# heavy: B2 heavy with Q316R, K418D
# light: B1 light
# notes: copies: 2 + 2
# B7: A375-SCF043a/B167-Lamlib (antibody, human IgG1, lambda)
# heavy: B2 heavy with P348R
# light: B1 light
# B8: A375-SCF041aPh/B167-Lamlib (antibody, human IgG1, lambda)
# heavy: B2 heavy with L240W, P348R, K418D
# light: B1 light
# B9: A375-SCF040/B167-Lamlib (antibody, human IgG1, lambda)
# heavy: B2 heavy with R219K, L240W, Q300L, K331T
# light: B1 light
# notes: copies: 2 + 2
# B10: A375-SCF043aPh/B167-Lamlib (antibody, human IgG1, lambda)
# heavy: B2 heavy with L240W, P348R
# light: B1 light
# Biological target: T1, human FcgRIIa type R extracellular …
# Test: SPR 25C
binding per 1RU antibody,relative binding (A375-G1T3/B167-Lamlib=1),Binder
0.0255 RU,0.55,B1
0.0327 RU,0.71,B2
0.0376 RU,0.81,B3
0.0542 RU,1.17,B4
0.0554 RU,1.2,B5
0.0331 RU,0.71,B6
0.0361 RU,0.78,B7
0.0371 RU,0.8,B8
0.0446 RU,0.96,B9
0.0349 RU,0.75,B10

# Biological target: T4, human FcgRIa extracellular domain (human, UniProt P12314 16-292)
# T4 construct: extracellular domain; also called hFcgRIa
# Test: SPR 25C
# T4 sequence (P12314 16-292): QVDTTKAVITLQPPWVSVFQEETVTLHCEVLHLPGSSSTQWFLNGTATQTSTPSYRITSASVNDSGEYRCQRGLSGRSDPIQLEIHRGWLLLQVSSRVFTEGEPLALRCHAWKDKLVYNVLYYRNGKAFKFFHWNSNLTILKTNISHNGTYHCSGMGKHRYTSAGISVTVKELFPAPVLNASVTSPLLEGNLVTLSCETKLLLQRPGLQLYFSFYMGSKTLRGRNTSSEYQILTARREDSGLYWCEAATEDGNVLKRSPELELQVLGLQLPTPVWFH
binding per 1RU antibody,relative binding (A375-G1T3/B167-Lamlib=1),Binder
0.0033 RU,0.04,B1
0.0396 RU,0.49,B2
0.0446 RU,0.55,B3
0.0018 RU,0.02,B4
0.0018 RU,0.02,B5
0.0395 RU,0.49,B6
0.0429 RU,0.53,B7
0.0013 RU,0.02,B8
0.0016 RU,0.02,B9
0.0011 RU,0.01,B10

# Biological target: T5, human FcgRIIIa V158 extracellular domain (human, UniProt P08637 17-208)
# T5 construct: extracellular domain; also called hFcgRIIIaV
# Test: SPR 25C
# T5 sequence (P08637 17-208 F176V): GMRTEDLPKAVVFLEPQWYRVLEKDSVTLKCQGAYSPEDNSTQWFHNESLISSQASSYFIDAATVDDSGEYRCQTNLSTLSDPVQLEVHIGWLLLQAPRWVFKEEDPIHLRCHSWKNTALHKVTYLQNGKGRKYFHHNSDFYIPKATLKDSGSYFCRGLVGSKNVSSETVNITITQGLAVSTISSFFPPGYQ
binding per 1RU antibody,relative binding (A375-G1T3/B167-Lamlib=1),Binder
0.0002 RU,0,B1
0.0014 RU,0.02,B2
0.0022 RU,0.03,B3
0.0013 RU,0.02,B4
0.0013 RU,0.02,B5
0.0023 RU,0.03,B6
0.0025 RU,0.04,B7
0.0005 RU,0.01,B8
0.0013 RU,0.02,B9
0.0001 RU,0,B10

# Biological target: T2, human FcgRIIa type H extracellular …
# Test: SPR 25C
binding per 1RU antibody,relative binding (A375-G1T3/B167-Lamlib=1),Binder
0.0103 RU,0.18,B1
0.0522 RU,0.92,B2
0.0571 RU,1.01,B3
0.0535 RU,0.94,B4
0.0542 RU,0.96,B5
0.0529 RU,0.93,B6
0.0552 RU,0.97,B7
0.0371 RU,0.65,B8
0.0454 RU,0.8,B9
0.0349 RU,0.62,B10

# Biological target: T3, human FcgRIIb extracellular domain
# Test: SPR 25C
binding per 1RU antibody,relative binding (A375-G1T3/B167-Lamlib=1),Binder
0.0979 RU,8.94,B1
0.0393 RU,3.59,B2
0.0433 RU,3.95,B3
0.0531 RU,4.85,B4
0.054 RU,4.93,B5
0.0399 RU,3.64,B6
0.0419 RU,3.82,B7
0.035 RU,3.2,B8
0.0465 RU,4.24,B9
0.0339 RU,3.1,B10

# Biological target: T6, human FcgRIIIa F158 extracellular domain (human, UniProt P08637 17-208)
# T6 construct: extracellular domain; also called hFcgRIIIaF
# Test: SPR 25C
# T6 sequence (P08637 17-208): as the sequence (P08637 17-208 F176V) above, with V160F counted along it
binding per 1RU antibody,relative binding (A375-G1T3/B167-Lamlib=1),Binder
0 RU,0,B1
0.0003 RU,0.01,B2
0.0009 RU,0.04,B3
0.0008 RU,0.04,B4
0.0012 RU,0.06,B5
0.0011 RU,0.05,B6
0.0011 RU,0.05,B7
0.0007 RU,0.03,B8
0.001 RU,0.05,B9
0.0001 RU,0,B10

# Biological target: human FcRn (human, UniProt P55899 24-290; P61769 21-119)
# Test: SPR 25C pH 6.0, steady state
# Method in brief: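 Antibody (~400 RU) captured on anti-Fab-lambda sensor chip, human FcRn injected as analyte.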
row,Kd,Binder
1,874 nM,B1
2,1490 nM,B2
3,1100 nM,B3
4,1090 nM,B4
5,1110 nM,B5
6,956 nM,B6
7,1180 nM,B7
8,1130 nM,B8
9,1460 nM,B9
10,1210 nM,B10

# Source: patent US20230272099A1 (Chugai, published 2023)
